The subject of this assay is alfalfa leaf proteases (fraction #8). In words: Fibronectin proteolysis by alfalfa leaf Mono-Q fraction #8 with protease inhibitors, immunodetection. The conditions noted are these: for proteolysis of fibronectin by the Mono-Q fraction in presence of inhibitor: 5 μl fraction #8, 350 ng fibronectin, 37° C., 15 min, FIG. 5B. The assay is classed as biochemical, alfalfa (cultivar Saranac). On the procedure: Firstly, a protein extract from alfalfa leaves was separated by chromatography to isolate a specific fraction containing the greatest protease activity. Alfalfa (cultivar Saranac) leaves were extracted by grinding in liquid nitrogen and resolubilization in 50 mM Tris-HCl, pH 6,8, containing 10 mM β-mercaptoethanol. The crude extract was centrifuged for 15 min at 10000 g at 4° C., and the supernatant was filtered through a 0.3 μm pore size filter. Fifteen mg of leaf proteins were then loaded on of a Mono-Q FPLC column (Pharmacia) equilibrated with extraction buffer. Proteins were eluted with a linear gradient of KCl (0 to 0.7 M) in extraction buffer, at a flow rate of 2 ml/min. Fractions of 500 μl were collected, and sample of each fraction was loaded onto a gelatin/PAGE gel (FIG. 5A). Fraction #8, which caused the highest proteolysis of gelatin in gel, was use to assess the protective effect of α-1 antichyinotrypsin.
Secondly, the identified fraction #8 was used in conjunction with various protease inhibitors to identify potential candidates for the inhibition of fibronectin proteolysis. In the experiment illustrated in FIG. 5B, 5 μl of fraction #8 was mixed with 350 ng of fibronectin and incubated at 37° C. for 15 min, in the presence of 2 μl H2O (lane 2), 2 μl of 10 mM chymostatin (lane 3) or 2 μl α-1 antichymotrypsin (lane 4). The control (lane 1) contained 5 μl extraction of buffer instead of alfalfa proteases. The reaction was stopped after 15 min. and fibronectin was immunodetected as in FIG. 1C. […] Note that both protein (α-1 antichymotrypsin) and chemical (chymostatin) molecules were efficient to decrease degradation of fibronectin.

Consider `CC(C)C[C@H](NC(=O)[C@@H](NC(=O)N[C@@H](Cc1ccccc1)C(=O)O)[C@@H]1CCN=C(N)N1)C(=O)N[C@H](C=O)Cc1ccccc1` [chymostatin, reference compound], for which the “proteolysis of fibronectin by the Mono-Q fraction in presence of inhibitor” value was “prevented”.

B1: α-1 antichymotrypsin: human serpin, inhibitor of chymotrypsin-like proteases (protein, UniProt P01011 24-423, looked up)
Alpha-1-antichymotrypsin: HPNSPLDEENLTQENQDRGTHVDLGLASANVDFAFSLYKQLVLKAPDKNVIFSPLSISTALAFLSLGAHNTTLTEILKGLKFNLTETSEAEIHQSFQHLLRTLNQSSDELQLSMGNAMFVKEQLSLLDRFTEDAKRLYGSEAFATDFQDSAAAKKLINDYVKNGTRGKITDLIKDLDSQTMMVLVNYIFFKAKWEMPFDPQDTHQSRFYLSKKKWVMVPMMSLHHLTIPYFRDEELSCTVVELKYTGNASALFILPDQDKMEEVEAMLLPETLKRWRDSLEFREIGELYLPKFSISRDYNLNDILLQLGIEEAFTSKADLSGITGARNLAVSQVVHKAVLDVFEEGTEASAATAVKITLLSALVETRTIVRFNRPFLMIIVPTDTQNIFFMSKVTNPKQA
Regarding B1, the “proteolysis of fibronectin by the Mono-Q fraction in presence of inhibitor” value is given as “prevented”. The “stability of fibronectin on inhibiting alfalfa proteases” value (FIG. 5) is “significantly increased”.

The record behind these values is patent publication US20050251885A1, “Method for enhancing yield of recombinant protein production from plants” (UNIVERSITE LAVAL, priority 2002, published 2005).
